Molecular target: Recombinant Human LRP1 cluster III protein, Fc Tag (human) (UniProt Q07954)
Experiment: SPR; LRP1 cluster III-Fc captured on a Protein G chip (1800 RU); tau1N4R as analyte 0.012-1 μM, single-cycle kinetics; HBS-N with 0.005% P20 and 1 mM CaCl2; 1:1 Langmuir model

Recombinant Human LRP1 cluster III protein, Fc Tag (human), sequence (Q07954 2522-2940): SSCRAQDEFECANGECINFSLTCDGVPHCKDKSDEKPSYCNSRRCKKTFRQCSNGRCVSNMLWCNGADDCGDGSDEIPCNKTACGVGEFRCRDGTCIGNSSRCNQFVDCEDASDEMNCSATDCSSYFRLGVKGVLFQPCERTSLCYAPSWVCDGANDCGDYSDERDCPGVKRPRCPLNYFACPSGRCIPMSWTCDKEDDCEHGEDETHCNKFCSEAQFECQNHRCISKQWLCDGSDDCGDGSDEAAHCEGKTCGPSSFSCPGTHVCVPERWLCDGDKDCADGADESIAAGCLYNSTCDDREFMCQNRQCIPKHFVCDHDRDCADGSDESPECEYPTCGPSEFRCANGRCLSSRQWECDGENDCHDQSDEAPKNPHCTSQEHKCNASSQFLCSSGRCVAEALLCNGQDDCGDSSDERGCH

Kd: 91 nM
Substance: tau1N4R (from UniProt P10636-6 1-383) (natural protein)
